Entries after “also recorded” stand apart in the source; their conditions may differ.

Test [1] deals with Axl autophosphorylation (Tyrosine 866) in HeLa cells. In words: Phospho-Axl (Y866) ELISA on HeLa cell lysates. In kind it is cell-based, human. As for the experimental part:
To assess the level to which various Axl inhibitors reduce activation of Axl, as assessed through on of inhibition of Tyrosine 866 (Y866), one of Axl's known autophosphorylation sites (others include Y779 and Y821—see Oncotarget. 2014 October; 5(20): 9546-9563; doi: 10.18632/oncotarget.2542 and references cited therein).
Lysate Preparation • 1. Seed out HeLa cells in 14 10-cm dishes • a. 3 million cells per dish • 2. Incubate cells until attached • 3. Remove medium and wash cells with PBS • 4. Serum-starve the cells in 0.5% FBS media • a. 0.5% MEM for HeLa • b. O/N, at least 24 hour starvation • 5. Incubate cells with anti-Axl antibodies for 1 hour in 6 ml fresh 0.5% MEM. • a. BGB324 (CAS=1037624-75-1, UNII=0ICW2LX8AS): 0.2 uM • b. H2L1-Evitra*: 50 ug/ml • c. H2L1-Catalent*: 50 ug/ml • d. YW327.6S2: 50 ug/ml • *same sequence, different preparation • 6. Stimulate designated plates with 0.01 ug/ml rhGas6 in 6 ml of total media per 10-cm dish. • a. rhGas6 stimulation 0.01 ug/ml • 7. Set-up: Make each in 26 ml of 0.5% MEM • #1. Starvation • #2. rhGas6 stimulation (0.01 ug/ml) • #3. rhGas6 stimulation+pre-incubation with BGB324 0.2 uM • #4. rhGas6 stimulation+pre-incubation with H2L1-Evitra: 50 ug/ml • #5. rhGas6 stimulation+pre-incubation with H2L1-Catalent: 50 ug/ml • #6. rhGas6 stimulation+pre-incubation with YW327.6S2 50 ug/ml • #7. BGB324 0.2 uM alone • #8. H2L1-Evitra: 50 ug/ml alone • #9. H2L1-Catalent: 50 ug/ml alone • #10. YW327.6S2 50 ug/ml alone • 8. Stop reaction by lysing cells on ice • 9. Wash with cold PBS • 10. Add RIPA buffer (plus phosphatase inhibitors) • a. 100 ul/dish • 11. Scrape cells from dish • 12. Incubate 5-10 min on ice • 13. Spin down 13,000 rpm 5-10 min (cold) • 14. Supernatant transferred to fresh tube • 15. Measure phospho-protein by ELISA […]
Materials • Nunc MaxiSorp 96C plates • Tris-buffered saline (TBS) pH7.6 • Tween 20 (Sigma) • Wash buffer (TBS+0.05% Tween 20) • Fetal bovine serum (FBS) (Sigma) • Monoclonal mouse anti-HsAxl antibody 5F11, 3.6 mg/ml stock (BerGenBio). • Polyclonal rabbit anti-Hs-phospho-Y866 Axl antibody pAxl-Y866-16, 1.0 mg/ml (BerGenBio). […] For HeLa cells total protein concentration 1.5 mg/ml gives a strong signal. • Microplate reader with 450 nm absorbance. Absorbance at 595 nm (if available) should be subtracted to reduce background, but the effect is marginal. […]
Develop • Prepare fresh substrate solution: • 100 μl 10 mg/ml TMB stock solution • 10 μl 30% Hydrogen peroxide solution • 9.9 ml 100 mM Sodium acetate pH6 • Optional: test a small volume of the substrate solution by adding 1 μl leftover HRP-conjugated detection antibody mixture (step 12). […] Read plate on microplate reader with absorbance of 450 nm.

In test [2] the test system is Axl-dependent phosphorylation of Akt in LX2 cells. Description: Axl-dependent AKT activation (pAkt Ser473 Western blot) in LX2 cells. The class given is cell-based, human. Here is the method: Activation of Axl by Gas6 or cross-linking antibodies leads to phosphorylation of Akt.
Effect of Axl blocking antibodies in blocking Axl-dependent AKT activation in LX2 cells: • Cells were seeded in 12-well/plate (2×10^5 cells/well) in DMEM/10% FBS and allowed to attach and grow for >24 h. […] Axl activation was read out via phosphorylation of Akt on serine 473 (Western blot).
Protein Analysis: • Cells were lysed in RIPA buffer (150 mM NaCl, 1.0% IGEPAL® CA-630, 0.5% sodium deoxycholate, 0.1% SDS, 50 mM Tris, pH 8.0., SIGMA-ALDRICH) supplemented with antiproteases and anti-phosphatases (PMSF, sodium orthovanadate, protease inhibitor cocktail, and sodium fluoride), adjusted to 1× Laemmli loading buffer, sonicated, and centrifuged. 20-30 μl of the samples were subjected to 8% sodium dodecyl sulphate-polyacrylamide gel electrophoresis and then transferred to nitrocellulose membranes. Membranes were blocked in 5% BSA-FAF and washed in TBS Tween buffer and then developed with Pierce-ECL western blotting Substrate. • The antibodies used were p-AKT (p-Akt1/2/3 (C-11)), 1:200 in 5% BSA/TBS-T, o/n at 4° C.; AKT (1:200), followed by anti-mouse m-IgGκ BP-HRP (1:2000, 1 h, RT); anti-AKT (Akt1/2/3 (H-136)), 1:400, 1 h, RT followed by anti-rabbit-IgG-HRP (1:20000, 1 h, RT).
Activation of Axl is often achieved by treating Axl with its ligand, Gas6. […]

Test [3] has as its target T1, human Axl (rhAxl-Fc chimera) (Homo sapiens, UniProt P30530).
T1 construct: Soluble recombinant antigens corresponding to the extracellular domains of members of the human TAM receptor family; Fc; purchased R&D Systems 154-AL
Description: Biacore kinetic analysis (surface plasmon resonance) on immobilised rhAxl-Fc. The class given is binding. As for the experimental part: Kinetic analysis of murine MAb 10G5 interacting with rhAxl immobilized on the surface of the Biacore sensor chip. Overlay plots of sensograms for different antibody concentrations (0.3-166.7 nM for murine 10G5) are shown. The precise kinetic analysis was performed using BIA evaluation software and curve fitting according to 1:1 Langmuir binding model. […]
Affinity determination of anti-Axl antibody 10G5 was performed at 25° C. by surface plasmon resonance measurements using Biacore 3000 instrument (GE Healthcare). As a solid antigen-coated surface, a sensor chip CM5 with immobilized rhAxl-Fc chimera (R&D Systems, Cat. no. 154-AL) at density 190 RU was used.
For the kinetics measurements, different concentrations of anti-Axl antibodies (from 0.3 to 666.7 nM) in HBS-EP buffer (Biacore, Cat. no. BR-1001-88) were injected at flow rate of 30 μL/min with 3 min injection time followed by 5 min dissociation (buffer alone). After each cycle, the surface was regenerated by 30 sec injection of a regeneration solution (10 mM HCl, 1 M NaCl) at flow rate 50 μL/min.
The kinetic association (on-rate, kon) and dissociation (off-rate, koff) rates were calculated using BIAevaluation software and 1:1 Langmuir binding model. The equilibrium dissociation constant (KD) was calculated as the koff/kon ratio. The half-life (t1/2) of the formed antibody-antigen complexes was calculated as the ln 2/koff ratio. […]

Test [4] addresses T2, Hs-Axl-Fc (immobilized Axl-Fc) (Homo sapiens, UniProt P30530).
T2 construct: Fc
In words: Biacore binding competition assays, two injections (Example 22). The following applies: Gas6 10 μg/mL as first protein. The text has this:
Sensor chip with immobilised Axl: Hs-Axl-Fc (638.2 RU), Mm-Axl-Fc (334.5 RU), Rhe-Axl-Fc (350.2 RU)
In this experiment, a first antibody was allowed to bind to saturation. A second antibody was then applied and its ability to bind was monitored.
If the second antibody recognizes the same (or overlapping) epitope as the first antibody then binding will be blocked. If the second antibody recognizes a different epitope then binding will be detected at the same level as if no first antibody was present.
The ability of Gas6 to block antibody binding was also tested, using Gas6 at 10 μg/mL in HBS-EP.
All tests were performed in parallel on Hs-Axl-Fc, Mm-Axl-Fc and Rhe-Axl-Fc surfaces.
See FIG. 1 for a list of the pairs that were tested (in this list Contr-1 is incorrectly labeled YW367 instead of YW327.6S2var). All antibodies were at 25 μg/mL in HBS-EP.
• 2. Perform Biacore experiments at 25° C. • 3. In the instrument control software choose Direct Binding, and select settings for two injections as shown below. • 4. […] Store the template & the result file, start the analysis.

The subject of a further test is A549 tumours. In words: A549 human NSCLC xenograft in mice (Examples 14, 16, 17, 18). The class given is in vivo, mouse. Conditions: SCID mice, 30 mg/kg i.p. twice weekly, after two weeks of treatment, versus control (SYNAGIS).
Setting [5] is: agent alone, starved HeLa (antibodies 50 ug/ml, BGB324 0.2 uM, rhGas6 0.01 ug/ml).
Where [6] appears, read: rhGas6 0.01 ug/ml stimulation after 1 hour pre-incubation (antibodies 50 ug/ml, BGB324 0.2 uM), starved HeLa.
[7] abbreviates: rhAxl immobilized on Biacore sensor chip, 25° C., 1:1 Langmuir binding model.

Description for A549 tumours: SCID mice were implanted subcutaneously (s.c.) into the flank with 5×10^6 A549 cells resuspended in serum-free medium/Matrigel (1:1).

`Nc1nc(Nc2ccc3c(c2)CC[C@@H](N2CCCC2)CC3)nn1-c1cc2c(nn1)-c1ccccc1CCC2` [BGB324, 1-(6,7-dihydro-5H-benzo[6,7]cyclohepta[1,2-c]pyridazin-3-yl)-N3-((7-(S)-pyrrolidin-1-yl)-6,7,8,9-tetrahydro-5H-benzo[7]annulene-2-yl)-1H-1,2,4-triazole-3,5-diamine, reference compound]: the “Absorbance @ 450 nm (pAxl reading)” value is listed as 0.039 in test [1] (setting [5]) and 0.045 in test [1] (setting [6]). The “Inhibition of 1H12-stimulated pAkt” value in test [2] (FIG. 22B) was “can be inhibited; also recorded: clear response”.

B1: rhGas6: recombinant human Gas6, Axl ligand (protein, listed as Homo sapiens)
chain: MAPSLSPGPAALRRAPQLLLLLLAAECALAALLPAREATQFLRPRQRRAFQVFEEAKQGHLERECVEELCSREEAREVFENDPETDYFYPRYLDCINKYGSPYTKNSGFATCVQNLPDQCTPNPCDRKGTQACQDLMGNFFCLCKAGWGGRLCDKDVNECSQENGGCLQICHNKPGSFHCSCHSGFELSSDGRTCQDIDECADSEACGEARCKNLPGSYSCLCDEGFAYSSQEKACRDVDECLQGRCEQVCVNSPGSYTCHCDGRGGLKLSQDMDTCEDILPCVPFSVAKSVKSLYLGRMFSGTPVIRLRFKRLQPTRLVAEFDFRTFDPEGILLFAGGHQDSTWIVLALRAGRLELQLRYNGVGRVTSSGPVINHGMWQTISVEELARNLVIKVNRDAVMKIAVAGDLFQPERGLYHLNLTVGGIPFHEKDLVQPINPRLDGCMRSWNWLNGEDTTIQETVKVNTRMQCFSVTERGSFYPGSGFAFYSLDYMRTPLDVGTESTWEVEVVAHIRPAADTGVLFALWAPDLRAVPLSVALVDYHSTKKLKKQLVVLAVEHTALALMEIKVCDGQEHVVTVSLRDGEATLEVDGTRGQSEVSAAQLQERLAVLERHLRSPVLTFAGGLPDVPVTSAPVTAFYRGCMTLEVNRRLLDLDEAAYKHSDITAHSCPPVEPAAA
modifications: (1)..(678) Homo sapiens Gas6
As for B1, the “Absorbance @ 450 nm (pAxl reading)” value in test [1] (setting [5]) was 0.077. In addition, the “Stimulation of Akt phosphorylation” value in test [2] (FIG. 22A, Gas6 versus cross-linking 1H12) was “weaker”.

B2: H2L1: humanised variant of 10G5; presumably VH GH2 (SEQ ID NO: 2) with VL GL1 (SEQ ID NO: 3) (antibody, V domains shown)
VH: EVQLVESGGGLVQPGGSLRLSCAASGYSFTDFYINWVRQAPGKGLEWVARIFPGGDNTYYNEKFKGRFTLSADTSKSTAYLQMNSLRAEDTAVYYCARRGLYYAMDYWGQGTLVTVSS
VL: DIQMTQSPSSLSASVGDRVTITCRSSQSLVHSNGIPYLHWYQQKPGKAPKLLIYRVSNRFSGVPSRFSGSGSGTDFTLTISSLQPEDFATYYCSQGTHVPPTFGQGTKVEIK
modifications: hu10G5 VH(GH2); hu10G5 VL(GL1)
In the case of B2, the “KD lower than that of the chimeric antibody” value in test [3] (comparison referring to Table 3) is reported as “at least 50%”. Also, the “Off-rate (koff)” value in test [3] (setting [7]) was 0.000142 s⁻¹. For the same molecule, the “On-rate (kon)” value in test [3] (setting [7]) is 2.07e+06 M⁻¹ s⁻¹. In addition, the “Effect of Gas6 bound first on subsequent binding of the antibody” value in test [4] was “inhibited”; in test [4] (listed as 1H21L1), “blocks binding”. Besides, in the test with A549 tumours, the “Inhibition of A549 tumour growth” value is “around 25%”. Besides, the “Absorbance @ 450 nm (pAxl reading)” value in test [1] (setting [6]) was found to be 0.055.

The values are drawn from patent US11732048B2, “Anti-axl antagonistic antibodies” (BERGEN TEKNOLOGIOVERFØRING AS, priority 2016, dated 2023).
